Common to all, as to test: SEC; FPLC of native protein with His-tag cleaved; HiLoad-16/60 Superdex200, 1 x PBS, 4°C, 1 ml/min; column calibrated with catalase, aldolase, chymotrypsinogen A and ribonuclease A
Assay [1] addresses GFP from the orange seapen Ptilosarcus gurneyi (Pt-GFP) (Ptilosarcus gurneyi).
Assay [2] concerns the target ecliptic pHluorin (Aequorea victoria).
The target of assay [3] is ratiometric pHluorin (Aequorea victoria).

In general, stoichiometry N refers to a count of units in the complex or per binding partner. On to “GFP from the orange seapen Ptilosarcus gurneyi (Pt-GFP) (natural protein)”, for which the stoichiometry N in assay [1] was 4.
In assay [2], ecliptic pHluorin registered a stoichiometry N of 2.
As to ratiometric pHluorin, the stoichiometry N in assay [3] was 2.

The values are drawn from paper PMC1475855.
